T1: human Protein S (human, UniProt P07225 42-676)
T1 construct: also called ProS; ProS1
T1 sequence: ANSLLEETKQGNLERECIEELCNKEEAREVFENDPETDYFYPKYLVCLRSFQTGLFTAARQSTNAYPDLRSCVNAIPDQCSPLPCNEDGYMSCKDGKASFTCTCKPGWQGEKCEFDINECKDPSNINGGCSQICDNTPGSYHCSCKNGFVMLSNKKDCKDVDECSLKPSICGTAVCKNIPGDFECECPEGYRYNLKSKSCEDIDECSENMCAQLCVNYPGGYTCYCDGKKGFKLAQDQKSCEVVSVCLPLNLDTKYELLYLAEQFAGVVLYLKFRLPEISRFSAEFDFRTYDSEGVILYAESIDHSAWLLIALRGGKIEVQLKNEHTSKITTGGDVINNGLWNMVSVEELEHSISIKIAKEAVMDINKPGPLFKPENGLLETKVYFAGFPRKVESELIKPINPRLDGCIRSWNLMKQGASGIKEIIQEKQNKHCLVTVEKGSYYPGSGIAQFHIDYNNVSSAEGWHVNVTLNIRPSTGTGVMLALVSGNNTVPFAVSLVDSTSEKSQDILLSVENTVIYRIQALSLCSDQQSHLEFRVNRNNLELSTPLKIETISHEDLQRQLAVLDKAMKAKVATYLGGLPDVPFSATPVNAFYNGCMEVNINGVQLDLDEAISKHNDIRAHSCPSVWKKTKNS

T2: Protein S-C4BP complex (human, UniProt P04003 49-597; P20851 18-252)
T2 construct: C4BP preparation from Complement Technologies that contains Protein S precomplexed to human C4BP; also called ProS-C4BP Complex; C4BP-Protein S complex
T2 sequence 1: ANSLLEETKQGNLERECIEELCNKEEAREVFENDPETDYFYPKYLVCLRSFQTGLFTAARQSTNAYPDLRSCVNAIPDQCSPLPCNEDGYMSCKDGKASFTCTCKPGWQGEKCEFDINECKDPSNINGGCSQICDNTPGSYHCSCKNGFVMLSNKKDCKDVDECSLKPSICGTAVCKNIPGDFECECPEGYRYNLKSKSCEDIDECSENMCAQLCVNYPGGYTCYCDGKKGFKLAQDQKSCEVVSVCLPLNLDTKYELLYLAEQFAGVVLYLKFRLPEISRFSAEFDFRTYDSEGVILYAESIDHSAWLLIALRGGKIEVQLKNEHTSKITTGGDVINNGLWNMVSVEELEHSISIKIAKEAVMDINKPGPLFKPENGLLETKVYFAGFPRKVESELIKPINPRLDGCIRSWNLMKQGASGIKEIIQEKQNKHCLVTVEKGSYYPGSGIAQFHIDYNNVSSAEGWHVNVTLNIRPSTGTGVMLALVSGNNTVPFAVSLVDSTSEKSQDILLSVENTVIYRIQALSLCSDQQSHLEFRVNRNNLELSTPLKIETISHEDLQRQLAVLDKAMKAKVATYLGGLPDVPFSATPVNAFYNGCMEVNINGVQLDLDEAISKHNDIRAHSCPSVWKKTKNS
T2 sequence 2: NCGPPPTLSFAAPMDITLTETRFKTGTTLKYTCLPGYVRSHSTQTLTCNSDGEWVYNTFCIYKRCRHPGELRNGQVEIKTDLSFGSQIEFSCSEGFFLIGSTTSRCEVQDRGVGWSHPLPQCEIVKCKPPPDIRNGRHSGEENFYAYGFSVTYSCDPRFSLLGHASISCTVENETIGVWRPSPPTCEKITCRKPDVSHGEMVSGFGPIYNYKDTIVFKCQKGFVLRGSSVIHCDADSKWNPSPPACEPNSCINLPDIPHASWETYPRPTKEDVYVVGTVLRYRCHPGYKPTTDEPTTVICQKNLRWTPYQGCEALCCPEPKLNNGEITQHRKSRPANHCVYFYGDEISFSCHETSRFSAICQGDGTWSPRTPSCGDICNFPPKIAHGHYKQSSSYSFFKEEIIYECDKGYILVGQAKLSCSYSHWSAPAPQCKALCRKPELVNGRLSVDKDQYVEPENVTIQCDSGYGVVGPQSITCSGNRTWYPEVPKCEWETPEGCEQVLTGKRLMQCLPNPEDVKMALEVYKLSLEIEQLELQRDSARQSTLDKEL
T2 sequence 3: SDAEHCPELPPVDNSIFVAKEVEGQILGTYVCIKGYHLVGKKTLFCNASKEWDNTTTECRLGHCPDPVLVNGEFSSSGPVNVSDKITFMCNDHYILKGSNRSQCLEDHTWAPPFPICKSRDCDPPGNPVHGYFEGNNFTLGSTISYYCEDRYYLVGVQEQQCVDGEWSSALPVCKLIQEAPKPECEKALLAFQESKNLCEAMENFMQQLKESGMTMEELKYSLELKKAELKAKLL


Key:
human Protein S [1] = biological target: T1, human Protein S; assay: SPR Biacore X100; antibody captured by anti-human IgG (Fc); Protein S 2-128 nM; 5 mM CaCl2; 1:1 fit
Procedure: Binding characteristics of the Protein S antibodies were also determined. Binding interaction analysis was obtained by Surface Plasmon Resonance in a Biacore X100 instrument. The human anti-IgG (Fc) antibody was immobilized to the carboxymethylated dextran membrane on the sensor chip surface (CM5) via the free amine method for a contact time of 420 seconds. Human anti-IgG antibody at 25 μg/mL in 0.15 M NaCl was immobilized to 9,785 RU in 10 mM sodium acetate pH 5.0.
Dilution and running buffer were as follows: Hbs−EP+5 mM CaCl₂. Regeneration was obtained by 3 M MgCl₂. Binding constants (ka, kd, and KD) were determined using the Biacore X100 evaluation software, assuming a 1:1 interaction of Protein S and the tested monoclonal antibody under investigation.

Protein S-C4BP complex = biological target: T2, Protein S-C4BP complex; assay: BLI Octet; antibody on anti-human Fc probe
Procedure: The Octet assay was used to determine the capability of the Protein S antibodies provided herein to bind to Protein S either alone, or when complexed to C4BP.
Using the Octet System (Sartorius), the binding of each antibody to both Protein S and Protein S in complex with C4BP was determined. It had previously been determined that the C4BP preparation from Complement Technologies contains Protein S precomplexed to human C4BP. Therefore, this preparation represented the Protein S-C4BP complex and plasma purified Protein S from Haematologic Technologies was used as the source of free Protein S. The human Fc antibodies were immobilized onto anti-human Fc capture probes by placing the probes into 10 μg/ml antibody solution in 10 mg/ml bovine serum albumin, 20 mM Tris pH 7.0, 150 mM NaCl, and 4 mM calcium chloride. Then the bound antibodies were placed into solutions containing either 75 μg/ml Protein S or 100 μg/ml C4BP (C4BP-Protein S complex).

human Protein S [2] = biological target: T1, human Protein S; assay: BLI Octet; antibody on anti-human Fc probe; Protein S 7.81-500 nM; 4 mM CaCl2
Procedure: (§1) Binding characteristics of the Protein S antibodies were also further characterized using Octet. Using the Octet System (Sartorius), the binding of each antibody to both human and cynomolgus monkey (“cyno” in Table 10) Protein S was determined. The human Fc antibodies were immobilized onto anti-human Fc capture probes by placing the probes into 10 μg/ml antibody solution in 10 mg/ml bovine serum albumin, 20 mM Tris pH 7.0, 150 mM NaCl, and 4 mM calcium chloride. […] Next, the probes were placed into buffer and the dissociation rates were measured.

[3] = biological target: T3, cynomolgus monkey Protein S (cynomolgus monkey); assay: as above
T3 construct: also called cyno Protein S
Procedure: as §1

| Kd (human Protein S [1]) [nM] | koff (human Protein S [1]) [s⁻¹] | kon (human Protein S [1]) [M⁻¹ s⁻¹] | Kd (human Protein S [2]) [nM] | koff (human Protein S [2]) [s⁻¹] | kon (human Protein S [2]) [M⁻¹ s⁻¹] | Kd [3] [nM] | koff [3] [s⁻¹] | kon [3] [M⁻¹ s⁻¹] | Binder | binding result (Protein S-C4BP complex) |
| --- | --- | --- | --- | --- | --- | --- | --- | --- | --- | --- |
| 9.6 | 0.00113 | 116000 | 0.399 | 3.4e-05 | 85200 | < 0.001 | < 1e-07 | 82100 | Antibody 11 (antibody, V domains shown, Same variable regions as Antibody 23) VH: QVQLVQSGAEVKKPGASVKVSCKSSGHTFTGYYMHWVRQAPGQGLEWMGWINPNSGDTNYAQKFQGRVTMTRDTSISTAYMEMSRLRSDDTAVYYCARDSQILWFGELGYWGQGTLVTVSS VL: QAVVTQESALTTSPGETVTLTCRSSTGAVTASNYANWVQEKPDHLFTGLIGSTNNRAPGVPARFSGSLIGDKAALTITGAQTEDEAIYFCALWYSDHFVFGGGTKLTVL | no binding (tested: 100 µg/ml C4BP (C4BP-Protein S complex)) |
|  |  |  | < 0.001 | < 1e-07 | 143000 | < 0.001 | < 1e-07 | 124000 | Antibody 25 (antibody, V domains shown, Same variable regions as Antibody 31) VH: QVQLQESGPGLVKPSETLSLTCTVSGGSISGNYWSWIRQPPGKGLEWIGYIYYSGSTNYNPSLKSRVTISVDTSKNQFSLKLSSVTAADTAVYYCARDLDYFTWGAYSDWYFDLWGRGTLVTVSS VL: DIQMTQSPSSLSASVGDRVTITCRASQSISTFLNWYQQKPGKAPKLLIYATSSLRSGVPSRFSGSGSGTDFTLTISSLQPEDFAIYYCQQSYSTPRTFGQGTQVEIK | no binding (tested: 100 µg/ml C4BP (C4BP-Protein S complex)) |
|  |  |  | 0.25 | 5.84e-05 | 234000 | 0.419 | 8.02e-05 | 191000 | Antibody 39 (antibody, V domains shown, Same variable regions as Antibody 40) VH: EVQLVESGGGLVQPGGSLRLSCAASGFTFSSYSMNWVRQAPGKGLEWVAYISSSTRTIFYADSVKGRFTISRDNAKNSLYLQMNSLRDEDTAFYYCARERSAFDYWGQGTLVTVSS VL: SYVLTQPPSVSVAPGQTARITCGGDNIGGKSVHWYQQKPGQAPVMVVYDDSDRPSGIPERFAGSNSGNTATLAISRVEAGDEADYYCQVWEITSDHPAFGGGTRLTVL | no binding (tested: 100 µg/ml C4BP (C4BP-Protein S complex)) |
|  |  |  | 13.8 | 0.0011 | 80000 | 19.5 | 0.00188 | 96400 | Antibody 41 (antibody, V domains shown, Same variable regions as Antibody 42) VH: QVQLVQSGSEVKKPGASVKVSCKASGYTFTNYYIHWVRQAPGQGLEWMGIITPSGGTTSYAQKFQGRVTMTRDTSTNTVYMGLSSLRSEDTAMYYCARAGVQLDRRGWFDPWGQGTLVTVSS VL: SYELTQPPSVSVSPGQTASITCSGDKLGDKYVFWYQQKPGQSPVLVIYQDSKRPSGIPERFSGSNSGNTATLTISGTQTMDEADYYCQAWDSSTVGFGGGTKLAVL | no binding (tested: 100 µg/ml C4BP (C4BP-Protein S complex)) |
